Reference: US20230056815A1 (VIELA BIO, published 2023)
Where a chain is given by its changes, count along the chain named.

T1: human soluble FLT3L (recombinant huFLT3L) (human, UniProt P49771 27-184)
T1 sequence (looked up): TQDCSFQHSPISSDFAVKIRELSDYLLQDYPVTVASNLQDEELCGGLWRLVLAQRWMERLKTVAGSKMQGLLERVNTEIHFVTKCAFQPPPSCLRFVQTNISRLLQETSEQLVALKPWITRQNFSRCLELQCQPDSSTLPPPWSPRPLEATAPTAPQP

T2: recombinant human colony stimulating factor 1 (CSF1) (human, UniProt P09603 33-190, limits assumed)
T2 construct: also called huCSF1; huCSF
T2 sequence (looked up): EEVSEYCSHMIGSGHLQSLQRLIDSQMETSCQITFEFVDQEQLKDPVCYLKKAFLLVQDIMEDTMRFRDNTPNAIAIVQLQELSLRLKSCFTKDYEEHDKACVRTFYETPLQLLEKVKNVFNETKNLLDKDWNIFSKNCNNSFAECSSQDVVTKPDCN

T3: human FLT3L on the cell surface (human, UniProt P49771 27-235)
T3 construct: whole, on cells; The assay field of each row says which cells carried it; also called cell-surface FLT3L; huFLT3L-expressing CHO cells
T3 sequence (looked up): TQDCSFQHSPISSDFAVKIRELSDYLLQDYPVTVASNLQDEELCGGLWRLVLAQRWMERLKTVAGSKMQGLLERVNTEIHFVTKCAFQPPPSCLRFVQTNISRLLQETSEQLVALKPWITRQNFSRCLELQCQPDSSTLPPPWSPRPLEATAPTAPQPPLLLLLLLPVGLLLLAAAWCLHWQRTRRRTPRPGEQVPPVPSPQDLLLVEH

T4: mouse FLT3L on CHO cells (mouse, UniProt P49772 27-232)
T4 construct: whole, on cells; also called cell surface mouse FLT3L
T4 sequence (looked up): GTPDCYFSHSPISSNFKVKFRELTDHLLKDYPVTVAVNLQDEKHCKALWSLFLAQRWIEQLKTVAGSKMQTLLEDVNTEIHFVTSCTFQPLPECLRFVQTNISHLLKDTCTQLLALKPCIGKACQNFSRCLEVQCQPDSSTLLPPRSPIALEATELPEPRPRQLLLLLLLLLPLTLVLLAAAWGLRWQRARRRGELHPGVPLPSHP

T5: mouse soluble FLT3L (mouse, UniProt P49772 27-189)
T5 sequence (looked up): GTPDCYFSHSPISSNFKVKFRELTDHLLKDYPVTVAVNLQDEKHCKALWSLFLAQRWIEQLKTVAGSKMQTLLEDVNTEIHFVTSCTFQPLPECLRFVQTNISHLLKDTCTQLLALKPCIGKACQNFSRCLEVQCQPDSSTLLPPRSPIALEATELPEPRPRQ

B1: CAT8 antibody (IgG1 TM format) (antibody, V domains shown)
VH: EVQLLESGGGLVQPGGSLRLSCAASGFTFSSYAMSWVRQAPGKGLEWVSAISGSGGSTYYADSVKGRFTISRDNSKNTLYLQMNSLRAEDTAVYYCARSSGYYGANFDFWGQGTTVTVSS
VL: QSVLTQPPSASGTPGQRVAISCSGSSSNIGSGYVYWYQQVPGTAPTLLIHRNNQRPSGVPDRFSGSKSGTSASLAISGLRSEDEADYYCAAWDDSLSGYVFGTGTKVTV
notes: Human antibody from phage display
B2: CAT8 Fab (Fab, V domains shown)
VH: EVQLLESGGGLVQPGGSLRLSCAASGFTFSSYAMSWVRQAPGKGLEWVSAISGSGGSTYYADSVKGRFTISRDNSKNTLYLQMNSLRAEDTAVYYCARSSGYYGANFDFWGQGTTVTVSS
VL: B1 VL
B3: CAT26 antibody (IgG1 TM format) (antibody, V domains shown)
VH: EVQLLESGGGLVQPGGSLRLSCAASGFTFSSYAVSWVRQAPGKGLEWVSAISGSGGSTYYADSVKGRFTISRDNSKNTLYLQMNSLRAEDTAVYYCVKDAYGSSWYFYYFDYWGQGTMVTVSS
VL: QSVLTQPPSASGTPGQRVTISCSGSSSNIGINPVNWYQQLPGTAPKVLIYSDKYRPSGVADRFSGSKSGTSASLAISGLQSEDEADYFCAAWDDSLNGRVFGTGTKLTVL
B4: CAT26 Fab (Fab, V domains shown)
VH: B3 VH
VL: B3 VL
B5: Dyax3 antibody (IgG1 TM format) (antibody, V domains shown)
VH: EVQLLESGGGLVQPGGSLRLSCAASGFTFSMYEMRWVRQAPGKGLEWVSVIPSGGKTFYADSVKGRFTISRDNSKNTLYLQMNSLRAEDTAVYYCARYSRWFGQLGFYSHYAMDVWSQGTTVTVSS
VL: DIQMTQSPSSLSASVGDRVAITCRASQSIDTYLNWYQQKPGKAPKLLIYAASKLEDGVPSRFSGSGTGTDFTLTIRSLQPEDFASYFCQQSYSSPGITFGPGTKVEIK
notes: also called DTAX3
B6: Dyax3 Fab (Fab, V domains shown)
VH: B5 VH
VL: B5 VL
B7: AM40 (MEDI1116) antibody (antibody, V domains shown)
VH: QVQLVQSGAEVKKPGSSVKVSCKASGGTFSSYALSWVRQAPGQGLEWMGTRPPTSRTASYAQKFQGRVTITVDESTSTGYMELSSLRSEDTAVYYCASNDFVYGSYRFWGQGTTVTVSS
VL: NFMLTQPHSVSESPGKTVTISCTRTSGNIAGYFVQWYQQRPGSSPTTVIYEDYQRPSGVPDRFSGSIDSSSNSASLTISGLKTEDEADYYCQSYDDYRRAAFGGGTKLTVLG
B8: SC4017 antibody (antibody, V domains shown)
VH: B7 VH
VL: B7 VL with N28W
B9: Dyax5 antibody (IgG1 TM format) (antibody, V domains shown)
VH: EVQLLESGGGLVQPGGSLRLSCAASGFTFSSYIMVWVRQAPGKGLEWVSSIYSSGGSTSYADSVKGRFTISRDNSKNTLYLQMNSLRAEDTAVYYCTRYSRWFGQLGFYSHYAMDVWSQGTTVTVSS
VL: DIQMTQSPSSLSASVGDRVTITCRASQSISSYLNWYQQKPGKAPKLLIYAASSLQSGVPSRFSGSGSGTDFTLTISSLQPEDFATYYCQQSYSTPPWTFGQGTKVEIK
B10: Dyax5 Fab (Fab, V domains shown)
VH: B9 VH
VL: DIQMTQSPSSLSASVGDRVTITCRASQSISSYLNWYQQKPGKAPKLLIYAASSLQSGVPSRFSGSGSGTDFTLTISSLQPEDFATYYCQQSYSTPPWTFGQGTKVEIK

Columns and labels:
[1] = molecular target: T1, human soluble FLT3L (recombinant …); assay: cell-based or functional assay
[2] = molecular target: cynomolgus monkey soluble FLT3L (cynomolgus monkey); assay: cell-based or functional assay
[3] = molecular target: T6, recombinant human stem cell factor (SCF) (human, UniProt P21583 26-189); assay: ELISA on coated recombinant human SCF
T6 construct: also called huSCF; KIT-ligand
T6 sequence (P21583 26-189 limits assumed): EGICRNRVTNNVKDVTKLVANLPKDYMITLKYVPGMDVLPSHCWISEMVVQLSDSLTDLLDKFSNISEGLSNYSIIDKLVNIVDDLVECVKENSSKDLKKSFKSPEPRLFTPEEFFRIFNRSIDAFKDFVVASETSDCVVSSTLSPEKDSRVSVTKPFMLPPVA
Procedure: (§1) To test this, an ELISA plate was coated with 2 µg of recombinant human SCF or CSF1. After washing, the plate was blocked with 3% milk in Tris-Phosphate Buffered Saline (TPBS) and lead antibodies were added in serial (×2) dilution, starting at 50 µg/ml. After incubation, unbound antibody was removed by washing and bound antibody was detected using anti-human IgG-HRP in combination with TMB substrate for color development. Commercially available goat anti-SCF pAb and mouse anti-CSF1 mAb were used as positive binding controls.

[4] = molecular target: T2, recombinant human colony stimulating …; assay: ELISA on coated recombinant human CSF1
Procedure: as §1

[5] = molecular target: T7, cynomolgus monkey FLT3L on CHO cells (cynomolgus monkey); assay: flow cytometry on CHO cells expressing full-length cyno FLT3L, PE anti-hu IgG
T7 construct: whole, on cells; also called cell surface cyno FLT3L
Procedure: (§2) Consistent with this, cell surface binding to human, cyno, and mouse FLT3L was evaluated by transfecting Chinese hamster ovary (CHO) cells with the respective full-length protein for each species. Candidate clones were incubated with FLT3L-expressing cell lines for 1 hour at 4° C. before being washed twice to remove unbound antibody. Cells were then incubated with PE-labeled goat anti-hu IgG secondary detection pAb to quantitate bound antibody which was measured by flow cytometric analysis of PE signal. The huFLT3-Fc construct, on a hu IgG backbone, was used as a positive control reagent for FLT3L expression as it cross reacts with cyno and mouse, in addition to human ligand.
(§3) As differences were apparent in the degree of receptor occupancy for each clone, both EC50 and max occupancy were noted (expressed as percent relative to FLT3-Fc) and taken into account in the final evaluation. Results are shown in Table 4 for human, cyno, and mouse FLT3L expressed in CHO cells.

[6] = molecular target: T3, human FLT3L on the cell surface; assay: flow cytometry on CHO cells expressing full-length human FLT3L, PE anti-hu IgG
Procedure: as §2, §3

mouse FLT3L on CHO cells [7] = molecular target: T4, mouse FLT3L on CHO cells; assay: flow cytometry on CHO cells expressing mouse FLT3L, anti-hu IgG-PE detection
Procedure: as §2

[8] = molecular target: T1, human soluble FLT3L (recombinant …); assay: Biacore, Fab
[9] = molecular target: T1, human soluble FLT3L (recombinant …); assay: Biacore, Fab, kinetic (koff/kon)
mouse soluble FLT3L = molecular target: T5, mouse soluble FLT3L; assay: cell-based or functional assay
[10] = molecular target: T1, human soluble FLT3L (recombinant …); assay: cell-based or functional assay; remark: listed apart in the source
mouse FLT3L on CHO cells [11] = molecular target: T4, mouse FLT3L on CHO cells; assay: flow cytometry on CHO cells expressing full-length mouse FLT3L, PE anti-hu IgG
Procedure: as §2, §3

[12] = molecular target: T1, human soluble FLT3L (recombinant …); assay: Biacore
[13] = molecular target: T8, cynomolgus monkey soluble FLT3L (cynomolgus monkey); assay: Biacore
T8 construct: extracellular domain; also called cyno sFLT3L; cyno FLT3L

Binder | IC50 (nM), inhibition of FLT3 downregulation on RS4;11 cells [1] [nM] | IC50 (nM), inhibition of FLT3 downregulation on RS4;11 cells [2] [nM] | EC50 [5] [nM] | maximum occupancy (% relative to FLT3-Fc) [5] [%] | EC50 [6] [nM] | maximum occupancy (% relative to FLT3-Fc) [6] [%] | koff [8] [s⁻¹] | kon [8] [M⁻¹ s⁻¹] | Kd [9] [nM] | other results
B1 | 43.5 | 3000 | 9 | 32 | 0.08 | 60 | – | – | – | binding result [3]: no binding (tested: about 0.3 uM); binding result [4]: no binding (tested: about 0.3 uM); binding result (mouse FLT3L on CHO cells [7]): no binding (tested: x = -7.2 (x axis without title or unit))
B2 | – | – | – | – | – | – | 0.00556 | 628000 | 8.85 | –
B3 | 618 | 2580 | 1.1 | 96 | 0.19 | 46 | – | – | – | binding result [3]: no binding (tested: about 0.3 uM); binding result [4]: no binding (tested: about 0.3 uM); binding result (mouse FLT3L on CHO cells [7]): no binding (tested: x = -7.2 (x axis without title or unit))
B4 | – | – | – | – | – | – | 0.00084 | 191000 | 4.37 | –
B5 | 54.8 | 3070 | 1.8 | 35 | 0.27 | 33 | – | – | – | IC50 (nM), inhibition of FLT3 downregulation on RS4;11 cells (mouse soluble FLT3L): 1490 nM; IC50 (nM) against 0.476 nM FLT3L, ERK phosphorylation in CD133+ stem cells [10]: 2.4 nM; IC50 (nM) against 0.476 nM FLT3L, MEK phosphorylation in CD133+ stem cells [10]: 93 nM; EC50 (mouse FLT3L on CHO cells [11]): 0.39 nM; maximum occupancy (% relative to FLT3-Fc) (mouse FLT3L on CHO cells [11]): 16%
B6 | – | – | – | – | – | – | 0.00123 | 66000 | 18.7 | –
B7 | – | – | – | – | – | – | – | – | – | Kd [12]: 0.17 nM; koff [12]: 0.00018 s⁻¹; kon [12]: 1.09e+06 M⁻¹ s⁻¹; Kd [13]: 0.063 nM; koff [13]: 0.00017 s⁻¹; kon [13]: 2.66e+06 M⁻¹ s⁻¹
B8 | – | – | – | – | – | – | – | – | – | Kd [12]: 0.037 nM; koff [12]: 5e-05 s⁻¹; kon [12]: 1.45e+06 M⁻¹ s⁻¹; Kd [13]: 0.0088 nM; koff [13]: 5e-05 s⁻¹; kon [13]: 5.84e+06 M⁻¹ s⁻¹
B9 | 245 | 6020 | – | – | 0.66 | 28 | – | – | – | IC50 (nM), inhibition of FLT3 downregulation on RS4;11 cells (mouse soluble FLT3L): 354 nM; IC50 (nM) against 0.476 nM FLT3L, ERK phosphorylation in CD133+ stem cells [10]: 25 nM; EC50 (mouse FLT3L on CHO cells [11]): 0.11 nM; maximum occupancy (% relative to FLT3-Fc) (mouse FLT3L on CHO cells [11]): 51%
B10 | – | – | – | – | – | – | 0.00501 | 228000 | 22 | –
